Consider 17 molecules from US20200362021A1 (PHANES THERAPEUTICS, published 2020).

First the molecules themselves.
T1: pyr-apelin-13-biotin (pE-RPRLSHKGPMPF-biotin) (N-terminal pyroglutamate (pE); C-terminal biotin)
T1 construct: also called pyrAPL13-Biotin
T1 peptide: ERPRLSHKGPMPF

T2: Biotin-APL17
T2 peptide: Biotin-KFRRQRPRLSHKGPMPF

T3: APL17-Biotin
T3 peptide: KFRRQRPRLSHKGPMPF-biotin

B1: anti-apelin mAb C9 (antibody, V domains shown)
VH: QEQLEESGGDLVKPEGSLTLTCTASGFSFSSSYWICWVRQAPGKGLEWIACIYQSGDGRTWYASWAEGRFTISKTSPTTVTLQMASLTAADTATYFCARCPHNTYSHFDLWGPSTLVTVSS
VL: DIVMTQTPASVEAAVGGTVTIKCQASQSINSWLSWYQQKPGQPPKPLIYGASNLASGVPSRFKGSGSGTQFTLTISDLECADAATYSCLGYYYSSYNSVGFWAFGGGTEVVVK
notes: recombinant rabbit IgG made in HEK293 cells
B2: anti-apelin mAb C5 (antibody, V domains shown)
VH: QSVEESGGRLVTPGTPLTLTCTVSGFSLSGAWMNWVRQAPGKGLEWIGVVSSDDNIYYADWAKGRFTISKTSTTVDLKLTSPTTEDTATYFCARNLGTIWGPGTLVTVSS
VL: QVLTQTESPVSAAVGGTVTINCQSSQSVWSNYLSWFQQKPGQPPKVLIYGTSKLPSGVPSRFSGSGSGTEFTLTINDLECDDAATYYCAGGYSGHIYSFGGGTEVVVK
notes: as for B1
B3: anti-apelin mAb C4 (antibody, V domains shown)
VH: LEQSGGGAEGGLVKPGGSLELCCKASGFTLSSSYWICWVRQAPGKGLEWIGCIHYGSSGTAYYASWVNGRFTLSRDIDQSTGCLQLNSLTAADTAMYYCARFLSDMYYYNLWGPGTLVTVSS
VL: QVLTQTPASVSAAVGGTVTINCQASQSIYNNNQLSWYQQKPGQPPKLLIYYASTLASGVSSRFKGSGSGTQFTLTISGVQCDDAATYYCQGQFNCRSADCHAFGGGTEVVVK
notes: as for B1
B4: anti-apelin mAb C17 (antibody, V domains shown)
VH: QSVEESGGRLVKPDETLTLTCAVSGIDLSSNAMNWVRQAPGEGLEWIGSMYTDGTTYYANWAKGRFTISRASSTTVDLKMTSLTAADTATYFCARGDIWGPGTLVTVSS
VL: QVLTQTASPVSAAVGGTVTISCQSSQSVYNNNWLAWFQQKPGQPPKRLIYGTSELASGVPSRFKGSGSGTQFTLTISGVQCDDAATYYCLGTYSSNIHVFGGGTEVVVK
notes: as for B1
B5: anti-apelin mAb C11 (antibody, V domains shown)
VH: QSLEESGGRLVSPGGSLTLTCTVSGIDLSSHAMDWVRQAPGKGLEWIGVIAPNDATYYPTWARGRFTISKTSTTVGLKMTRLTTEDTATYFCAAYPIDAGANVWGPGTLVTVSS
VL: DPMLTQTASPVSAHVGGTVTINCQSSESVDYNNQLSWYQQKPGQPPKRLMYYVSTLDSGVPSRFKGSGSGTQFSLTISDLECDDAGTYYCQGGYISNLYPFGGGTEVVVK
notes: as for B1
B6: anti-apelin mAb C16 (antibody, V domains shown)
VH: QSLEESGGRLVTPGGSLTLTCTVSGIDLNSYAMDWVRQAPGKGLEWIGVIAPNHYTYYPTWARGRFTISKTSTTVDLKMTRLTTEDTATYFCATYPIESGSNIWGPGTLVIVSS
VL: B5 VL with M3V, A8P, P10S, H14A, N22G, D30G, Y31M
notes: as for B1
B7: anti-apelin mAb C20 (antibody, V domains shown)
VH: B6 VH with S30N, M33I, Y57C, R81S, T94A, S99T
VL: B5 VL with A8P, P10S, H14A, N22S, Y31M, T71I, Q72H, D83A
notes: as for B1
B8: anti-apelin mAb C14 (antibody, V domains shown)
VH: B5 VH with L3P, S12T, T22K, V23I, I26V, S30N, H31Y, F66L, G76D, A99V
VL: B5 VL with H14A
notes: as for B1
B9: anti-apelin mAb C22 (antibody, V domains shown)
VH: B6 VH with S30N, R81S, S99T
VL: DPVLTQTPSSVSAAVGGTVTISCQSSESVDMNNQLSWYHQKSGQPPKRLMYYVSTLDSGVPSRFKGSGSGTQFTLTISGVQCDDAGTYYCQGGYISNLYPFGGGTEVVVK
notes: as for B1
B10: anti-apelin mAb C10 (antibody, V domains shown)
VH: QSLEESGGRLVTPGGSLTLTCTVSGIDLNSYAIDWVRQAPGKGLEWIGVIAPSGTTYYPTWAKGRFTISKTSTTVDLKVTGLTTEDTATYFCAAYPIDPGSNIWGPGTLVTVSS
VL: DPVLTQTPSSVSAAVGGTATIGCQSSESVDYGNQLSWYQQKPGQPPKRLAYYVSILDAGVPSRFKGSGSGTQFTLTISDLECDDAATYYCQGGYISNLYPFGGGTEVVVQ
notes: as for B1
B11: anti-apelin mAb C12 (antibody, V domains shown)
VH: QSLEESGGRLVTPGGSLTLTCTVSGIDLSSYAIDWVRQAPGKGLEWIGVIAPSSTTYYPTWAKGRFTISKTSSTTVDLKVIGLTTEDTATYFCAAYPIDPGSNVWGPGTLVTVSS
VL: B10 VL with A19V, A50T
notes: as for B1
B12: C13 (antibody, V domains shown)
VH: QSLEESGGRLAKPGETLTLTCTVSGIDLNSHAVDWVRQAPGKGLEWIGVIGPGGNTYYASWAKGRFTISKTSSTTVDLKMTSLTAEDTATFFCATYPIYSGDNIWGPGTLVTVSS
VL: DPVLTQTPPSVSAAVGGTVTINCQSSESVDNNNQLSWYQQKVGQPPKRLMYYASTLDSGVPSRFKGGGSGTHFTLTITDLECDDAATYYCQGGTATNIYPFGGGTEVVVK
notes: recombinant rabbit mAb; also called anti-apelin mAb C13
B13: humanized anti-apelin mAb A11 (antibody, V domains shown)
VH: QSLEESGGGLVQPGGSLRLSCAVSGIDLYSNRMSWVRQAPGKGLEWVSSIGSSPWYASWAQGRFTISRDNSNTLYLQMNSLTAEDTAVYYCAKGGYRPGASVWGQGTLVTVSS
VL: DIQLTQSPSSLSASVGDRVTITCQSSQSIYDNNDLAWYQQKPGKTPKRLIYLASSLDSGVPSRFSGSGSGTDFTLTISSLQPEDVATYYCAGGYSGDIYTFGGGTKVEIK
notes: humanized from C8; tested as HEK293 supernatant
B14: humanized anti-apelin mAb A33 (antibody, V domains shown)
VH: B13 VH with S48G, L74V, V88T, Y90F
VL: AQVLTQSPSSLSASVGDRVTIACQSSQSVYDNNDLAWYQQKAGQTPKRLIYLASSLDSGVPSRFSGSGSGTEFTLTISSLQCEDVATYYCAGGYSGDIYTFGGGTEVVVE
notes: as for B13
B15: humanized anti-apelin mAb A43 (antibody, V domains shown)
VH: B13 VH with A22T, S48G, L74V, Q77K, L81P, V88T, Y90F
VL: B14 VL
notes: as for B13
B16: humanized anti-apelin mAb A21 (antibody, V domains shown)
VH: B13 VH with L74V, V88T, Y90F
VL: B13 VL
notes: as for B13
B17: humanized anti-apelin mAb A41 (antibody, V domains shown)
VH: B13 VH with A22T, S48G, L74V, Q77K, L81P, V88T, Y90F
VL: B13 VL
notes: as for B13

Numbering of substitutions follows the chain as printed. No end group written: not given here. *: point of attachment. Biotin = O=C1N[C@H]2[C@H](CS[C@H]2CCCCC(=O)*)N1

For orientation: Kd means the free concentration of one partner at which half of the binding sites on the other are occupied at equilibrium, for simple one-to-one binding. Lower therefore signals a tighter complex.

The target in one assay is T4, biotin-apelin-13 (biotin-…) (N-terminal biotin).
T4 construct: also called Biotin-APL13
Put plainly: SPR (Biacore), biotin-apelin-13 on streptavidin CM5 chip, mAb at 12.5-100 nM. Here is the method: (§1) Anti-apelin mAbs at four different concentrations (12.5 nM, 25 nM, 50 nM and 100 nM) were captured on the chip surface. The on- and off-rate for antibody-antigen binding were measured, curve fitted and calculated.
The molecule B1 showed a dissociation constant Kd of 14800 pM.

B2 came in with an equilibrium dissociation constant (Kd) of 51300 pM.

B3: the dissociation constant Kd amounted to 4010 pM.

As to B4, the Kd came to 1060 pM. Against the preceding molecule, the Kd is about 3.8-fold lower.

A further assay concerns the target T1, pyr-apelin-13-biotin …. Put plainly: SPR (Biacore), pyr-apelin-13-biotin on streptavidin chip. How it is done:
as §1
B5 displayed a Kd of 0.141 pM.

B6: the Kd is 6140 pM.

Regarding B7, binding was characterised by a dissociation constant (Kd) of 41.9 pM. Against the preceding molecule, the Kd is about 150-fold lower.

Regarding B8, binding was put at a Kd of 6.49 pM. Compared with the last molecule, the Kd is about 6.5-fold lower.

In the case of B9, the dissociation constant Kd was 0.155 pM.

B10: binding was put at a Kd of 0.0482 pM.

Regarding B11, the Kd was 0.0555 pM. This Kd and that of the molecule before are within 1.5-fold of each other.

In another assay the target is T5, apelin-13-biotin (…-biotin) (C-terminal biotin).
T5 construct: also called APL13-Biotin
Briefly: SPR (Biacore), apelin-13-biotin on streptavidin chip. Here is the method: as §1
A general note: In SPR one partner is held on a chip, and binding of the other changes the refractive index at the surface.
Consider B5, for which the dissociation constant Kd was 39.3 pM.

In turn, B6 registered a Kd of 14300 pM. This Kd is about 360-fold higher than that of the molecule before.

B7 gave a Kd of 202 pM. Compared with the last molecule, the Kd is about 71-fold lower.

Molecule B8 had a Kd of 141 pM.

Molecule B9 had a dissociation constant Kd of 107 pM.

In turn, B10 showed a Kd of 6.46 pM.

Turning to B11, the dissociation constant (Kd) was 3.55 pM. This Kd is about 1.8-fold lower than that of the molecule before.

The target in another assay is T1, pyr-apelin-13-biotin …. Briefly: ELISA, peptide on neutravidin plate, mAb 200 ng/ml, A405. How it is done:
(§2) FIGS. 1A-1C show binding of anti-apelin mAbs to various biotinylated apelin peptides measured by ELISA. Biotinylated apelin peptides were immobilized on ELISA plates coated with neutravidin and purified recombinant rabbit anti-apelin mAbs were added for binding to the peptides on the plates. The binding was detected by adding a goat anti-rabbit IgG Fc-conjugated to alkaline phosphatase and PNPP substrate, and measured as the absorbance at 405 nm.
(§3) For the binding assay, neutravidin in carbonate coating buffer was coated on high binding ELISA plates at 1 μg/ml overnight. Peptides were added at 4 μg/ml after the plates were blocked with 1% BSA in TBS. After incubation of the plates at room temperature for 60 minutes, the plates were washed and then purified recombinant rabbit antibodies were added at 200 ng/ml. Following rabbit antibody binding to the peptides on the plates at room temperature for 90 minutes, goat anti-rabbit IgG Fc-conjugated to alkaline phosphatase was added, and antibody-antigen binding was detected by adding PNPP substrate and reading absorbance of ELISA plates at 405 nm. Each mAb was assayed in duplicate.
Background: ELISA stands for enzyme-linked immunosorbent assay.
In the case of B12, the binding result is “binds”.

Turning to B2, the binding result was “no binding (tested: 200 ng/ml)”.

Turning to B4, the binding result is reported as “no binding (tested: 200 ng/ml)”.

In a further assay the target is T2, Biotin-APL17. Described as above. How it is done: as §2, §3
For B12, the binding result is reported as “binds”.

Consider B1, for which the binding result is listed as “binds”.

On to B5, for which the binding result is “binds”.

With B6, the binding result was “no binding (tested: 200 ng/ml)”.

As for B8, the binding result was “binds”.

Take B9: the binding result is given as “binds”.

Consider B10, for which the binding result is “no binding (tested: 200 ng/ml)”.

B11: the binding result is “no binding (tested: 200 ng/ml)”.

Turning to B3, the binding result is given as “binds”.

For the next assay, the target named is T3, APL17-Biotin. Described as above. How it is done:
as §2, §3
B1: the binding result is “binds”.

Consider B5, for which the binding result was “binds”.

B6: the binding result is reported as “no binding (tested: 200 ng/ml)”.

On to B8, for which the binding result is listed as “binds”.

For B9, the binding result was “binds”.

With B10, the binding result is recorded as “no binding (tested: 200 ng/ml)”.

Take B11: the binding result is recorded as “no binding (tested: 200 ng/ml)”.

Consider B3, for which the binding result is recorded as “binds”.

The next assay addresses T4, biotin-apelin-13 (biotin-…). Put plainly: SPR (Biacore) with biotin-apelin-13, humanized IgG1 mAb in HEK293 supernatant. The source says: The rabbit anti-apelin mAb C8 was humanized to reduce the potential of immunogenicity when used in human patients. The sequences of the variable regions of the heavy and light chains (VH and VL) were compared with the human antibody sequences in the Protein Data Bank (PDB) database and a homology model was built by applying SWISS-modeling. The CDRs in both the heavy and light chains of the rabbit mAb were grafted into human frameworks that have the highest possibility of maintaining the proper structure likely required for antigen binding. Backmutations from human residue to rabbit residue were designed when necessary. The sequences of the humanized VH and VL regions are shown in Table 11 and Table 12, respectively. The humanized VH and VL regions were fused to human IgG1 heavy chain and kappa light chain constant regions, respectively, to generate humanized mAbs. Constructs corresponding to the mAb sequences were used for transient transfection in HEK 293 cells and the supernatants were analyzed for the affinity of each humanized mAb for apelin.
For the molecule B13, the Kd came out at 0.126 pM.

For B14, binding was characterised by a dissociation constant (Kd) of 0.0143 pM.

B15: the Kd was 3.26 pM. This Kd is about 230-fold higher than that of the molecule before.

Molecule B16 yielded a Kd of 0.00165 pM.

Consider B17, for which the affinity, expressed as Kd, was 0.067 pM.
